Assay results published in publication PMC11022410, “Synthesis and characterization of water-soluble C60–peptide conjugates” (Beilstein Journal of Organic Chemistry, 2024).

Assays:
[1] = format: physicochemical; settings: for Solubility in Milli-Q water (pH 7.0): from lyophilized solid, Milli-Q water pH 7.0, visual (transparent solution), also with sonication, 5b purified, 5c crude; for Solubilizing solvents (Table S1): list of the solvents used to solubilize the molecules; for Solubility in acidic eluent used for HRESIMS: mixture of MeOH and water containing 0.1% formic acid
Protocol: The water solubility of C60–peptide conjugates 5a–c was tested after the removal of any remaining solvent traces by lyophilization. […]
Solubility of C60–oligopeptides 5a–c
Table S1. List of the solubilizing solvents for compounds 5a-5c. […]

[2] = Photoinduced 1O2 generation by ESR spin trapping with 4-oxo-TEMP; settings: green LED 527 nm, 1 min or 10 min; PS 40 μM, 4-oxo-TEMP 80 mM, 60 mM phosphate buffer pH 7.0, O2-bubbled, 296 K
Protocol: To preliminarily evaluate the synthesized C60–oligo-Lys (5a) as a PS, generation of singlet oxygen was measured by the ESR spin trapping method under irradiation of visible light (527 nm green LED). 4-Oxo-TEMP was used as a spin trapping reagent to form an adduct with ^1O2, i.e., 4-oxo-TEMPO, which was observed by ESR (Figure 7b).
Figure 7 a) X-band ESR spectra of the 4-oxo-TEMP adduct with ^1O2 generated by C60–oligo-Lys (5a) and rose bengal (RB), respectively, in aqueous solutions under irradiation with a green LED lamp (527 nm) for 1 min or 10 min. PS: 40 μM, 4-oxo-TEMP: 80 mM, in 60 mM phosphate buffer (pH 7.0). Measurement conditions: temperature 296 K, microwave frequency 10.03 GHz, microwave power 10 mW, receiver gain 5.0 × 10^4, modulation amplitude 1.00 G, modulation frequency 100 KHz, sweep time 83.89 s, number of scans: 1. b) Scheme for the photoinduced ^1O2 generation by C60 and reaction with spin trapping reagent 4-oxo-TEMP to form 4-oxo-TEMPO.
Detection of photoinduced 1O2 generation by ESR spin trapping
ESR measurements were carried out on a Bruker spectrometer equipped with a microwave bridge X-band ER. […]
1O2 generation was detected through the 1O2 adduct of 4-oxo-TEMP generated in an aqueous solution of C60−oligo-Lys (5a) and rose bengal as reference under irradiation by a green LED (527 nm). […]

SMILES: NCCCC[C@H](NC(=O)[C@H](CCCCN)NC(=O)[C@H](CCCCN)NC(=O)[C@H](CCCCN)NC(=O)[C@H](CCCCN)NC(=O)CCCNC(=O)CC(CC(=O)NCCCC(=O)N[C@@H](CCCCN)C(=O)N[C@@H](CCCCN)C(=O)N[C@@H](CCCCN)C(=O)N[C@@H](CCCCN)C(=O)N[C@@H](CCCCN)C(=O)O)N1CC23c4c5c6c7c8c9c(c%10c%11c2c2c4c4c%12c5c5c6c6c8c8c%13c9c9c%10c%10c%11c%11c2c2c4c4c%12c%12c5c5c6c8c6c8c%13c9c9c%10c%10c%11c2c2c4c4c%12c5c6c5c8c9c%10c2c45)C73C1)C(=O)O (stereo partly shown) [5a, C60–oligo-Lys]
- Solubility in Milli-Q water (pH 7.0) [1]: immediately and thoroughly solubilized
- Solubilizing solvents (Table S1) [1]: water (pH 4.0–9.2), MeOH, DMSO
- Solubility in nonpolar solvents ([1]; most nonpolar solvents, including toluene and CH2Cl2): not highly soluble
- Solubility in other polar solvents ([1]; other polar solvents, including MeOH and DMSO): slightly soluble

SMILES: O=C([O-])c1c(Cl)c(Cl)c(Cl)c(Cl)c1-c1c2cc(I)c(=O)c(I)c-2oc2c(I)c([O-])c(I)cc12.[Na+].[Na+] [rose bengal]
- 1O2 generation under visible light irradiation (ESR signal of 4-oxo-TEMPO) [2]: three peaks corresponding to 4-oxo-TEMPO were observed

SMILES: O=C(O)CC[C@H](NC(=O)[C@H](CCC(=O)O)NC(=O)[C@H](CCC(=O)O)NC(=O)[C@H](CCC(=O)O)NC(=O)[C@H](CCC(=O)O)NC(=O)CCCNC(=O)CC(CC(=O)NCCCC(=O)N[C@@H](CCC(=O)O)C(=O)N[C@@H](CCC(=O)O)C(=O)N[C@@H](CCC(=O)O)C(=O)N[C@@H](CCC(=O)O)C(=O)N[C@@H](CCC(=O)O)C(=O)O)N1CC23c4c5c6c7c8c9c(c%10c%11c2c2c4c4c%12c5c5c6c6c8c8c%13c9c9c%10c%10c%11c%11c2c2c4c4c%12c%12c5c5c6c8c6c8c%13c9c9c%10c%10c%11c2c2c4c4c%12c5c6c5c8c9c%10c2c45)C73C1)C(=O)O (stereo partly shown) [5b, C60–oligo-Glu]
- Solubility in Milli-Q water (pH 7.0) [1]: did not produce transparent solutions
- Solubilizing solvents (Table S1) [1]: 25 mM TRIS buffer (pH > 8.3), 2% NaOD in D2O (pH 13.7)
- Solubility in acidic eluent used for HRESIMS [1]: insolubility

SMILES: N=C(N)NCCC[C@H](NC(=O)[C@H](CCCNC(=N)N)NC(=O)[C@H](CCCNC(=N)N)NC(=O)[C@H](CCCNC(=N)N)NC(=O)[C@H](CCCNC(=N)N)NC(=O)CCCNC(=O)CC(CC(=O)NCCCC(=O)N[C@@H](CCCNC(=N)N)C(=O)N[C@@H](CCCNC(=N)N)C(=O)N[C@@H](CCCNC(=N)N)C(=O)N[C@@H](CCCNC(=N)N)C(=O)N[C@@H](CCCNC(=N)N)C(=O)O)N1CC23c4c5c6c7c8c9c(c%10c%11c2c2c4c4c%12c5c5c6c6c8c8c%13c9c9c%10c%10c%11c%11c2c2c4c4c%12c%12c5c5c6c8c6c8c%13c9c9c%10c%10c%11c2c2c4c4c%12c5c6c5c8c9c%10c2c45)C73C1)C(=O)O (stereo partly shown) [5c, C60–oligo-Arg]
- Solubility in Milli-Q water (pH 7.0) [1]: did not produce transparent solutions
- Solubilizing solvents (Table S1) [1]: insoluble in most solvents
- Solubility in acidic eluent used for HRESIMS [1]: slightly soluble
- Solubility in polar and nonpolar solvents ([1]; most polar and nonpolar solvents): not soluble in most polar and nonpolar solvents
- Solubility over the tested pH value range ([1]; tested pH value range 4.0–9.2): remained insoluble
